Non-standard residues stand in square brackets, D forms with d. No end group written: not given here.
Molecular target: T1, lecithin:cholesterol acyltransferase (LCAT), purified from human plasma (human, UniProt P04180 25-440)
T1 sequence (looked up): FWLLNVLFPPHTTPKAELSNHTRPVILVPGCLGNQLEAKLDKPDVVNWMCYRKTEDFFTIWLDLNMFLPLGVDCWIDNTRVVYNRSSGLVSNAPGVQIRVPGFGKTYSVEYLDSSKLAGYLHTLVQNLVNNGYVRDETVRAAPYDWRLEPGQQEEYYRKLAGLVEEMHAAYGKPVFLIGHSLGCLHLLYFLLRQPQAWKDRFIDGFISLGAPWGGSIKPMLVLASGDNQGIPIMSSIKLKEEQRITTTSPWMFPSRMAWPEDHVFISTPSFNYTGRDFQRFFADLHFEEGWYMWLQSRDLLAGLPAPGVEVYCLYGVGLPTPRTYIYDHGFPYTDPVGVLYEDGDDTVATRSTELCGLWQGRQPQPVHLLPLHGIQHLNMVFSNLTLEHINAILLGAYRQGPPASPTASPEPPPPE
Assay: cell-based or functional assay

ACTIVITY (%) LCAT: 22%
B1: peptide 48 (peptide)
peptide: [dP][dV]LDLFRELLNELLEALKQKLK

— US6900177
